Source: ChEMBL document CHEMBL2074203, “Multidrug resistance protein MRP1 protects against the toxicity of the major lipid peroxidation product 4-hydroxynonenal” (Biochem J, 2000)

Substrate: CCCCCC1OC(O)CC1SC[C@H](NC(=O)CC[C@H](N)C(=O)O)C(=O)NCC(=O)O
Test: TP_TRANSPORTER: uptake in membrane vesicle from MRP1-expressing High Five insect cells
Format: functional, cell membranes, BTI-TN-5B1-4

B1: Multidrug resistance-associated protein 1 (Homo sapiens) (protein)
chain: MALRGFCSADGSDPLWDWNVTWNTSNPDFTKCFQNTVLVWVPCFYLWACFPFYFLYLSRHDRGYIQMTPLNKTKTALGFLLWIVCWADLFYSFWERSRGIFLAPVFLVSPTLLGITMLLATFLIQLERRKGVQSSGIMLTFWLVALVCALAILRSKIMTALKEDAQVDLFRDITFYVYFSLLLIQLVLSCFSDRSPLFSETIHDPNPCPESSASFLSRITFWWITGLIVRGYRQPLEGSDLWSLNKEDTSEQVVPVLVKNWKKECAKTRKQPVKVVYSSKDPAQPKESSKVDANEEVEALIVKSPQKEWNPSLFKVLYKTFGPYFLMSFFFKAIHDLMMFSGPQILKLLIKFVNDTKAPDWQGYFYTVLLFVTACLQTLVLHQYFHICFVSGMRIKTAVIGAVYRKALVITNSARKSSTVGEIVNLMSVDAQRFMDLATYINMIWSAPLQVILALYLLWLNLGPSVLAGVAVMVLMVPVNAVMAMKTKTYQVAHMKSKDNRIKLMNEILNGIKVLKLYAWELAFKDKVLAIRQEELKVLKKSAYLSAVGTFTWVCTPFLVALCTFAVYVTIDENNILDAQTAFVSLALFNILRFPLNILPMVISSIVQASVSLKRLRIFLSHEELEPDSIERRPVKDGGGTNSITVRNATFTWARSDPPTLNGITFSIPEGALVAVVGQVGCGKSSLLSALLAEMDKVEGHVAIKGSVAYVPQQAWIQNDSLRENILFGCQLEEPYYRSVIQACALLPDLEILPSGDRTEIGEKGVNLSGGQKQRVSLARAVYSNADIYLFDDPLSAVDAHVGKHIFENVIGPKGMLKNKTRILVTHSMSYLPQVDVIIVMSGGKISEMGSYQELLARDGAFAEFLRTYASTEQEQDAEENGVTGVSGPGKEAKQMENGMLVTDSAGKQLQRQLSSSSSYSGDISRHHNSTAELQKAEAKKEETWKLMEADKAQTGQVKLSVYWDYMKAIGLFISFLSIFLFMCNHVSALASNYWLSLWTDDPIVNGTQEHTKVRLSVYGALGISQGIAVFGYSMAVSIGGILASRCLHVDLLHSILRSPMSFFERTPSGNLVNRFSKELDTVDSMIPEVIKMFMGSLFNVIGACIVILLATPIAAIIIPPLGLIYFFVQRFYVASSRQLKRLESVSRSPVYSHFNETLLGVSVIRAFEEQERFIHQSDLKVDENQKAYYPSIVANRWLAVRLECVGNCIVLFAALFAVISRHSLSAGLVGLSVSYSLQVTTYLNWLVRMSSEMETNIVAVERLKEYSETEKEAPWQIQETAPPSSWPQVGRVEFRNYCLRYREDLDFVLRHINVTINGGEKVGIVGRTGAGKSSLTLGLFRINESAEGEIIIDGINIAKIGLHDLRFKITIIPQDPVLFSGSLRMNLDPFSQYSDEEVWTSLELAHLKDFVSALPDKLDHECAEGGENLSVGQRQLVCLARALLRKTKILVLDEATAAVDLETDDLIQSTIRTQFEDCTVLTIAHRLNTIMDYTRVIVLDKGEIQEYGAPSDLLQQRGLFYSMAKDAGLV
Km: 1.6 µM
